In paper doi:10.1101/2025.09.18.677151:

Molecular target: T1, E. coli TatC (subunit of the overexpressed TatBC complex) (E. coli), P69423
T1 chain: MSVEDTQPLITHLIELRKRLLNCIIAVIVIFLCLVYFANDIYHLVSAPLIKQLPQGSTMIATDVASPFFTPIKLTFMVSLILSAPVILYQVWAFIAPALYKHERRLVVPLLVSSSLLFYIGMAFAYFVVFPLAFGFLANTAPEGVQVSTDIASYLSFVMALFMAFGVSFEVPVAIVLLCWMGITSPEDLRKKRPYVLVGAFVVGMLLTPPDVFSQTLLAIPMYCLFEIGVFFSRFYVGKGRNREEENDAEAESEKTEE
Assay: cryo-EM structure
Conditions: remark: other sources report otherwise

B1: E. coli TatC (subunit of the overexpressed TatBC complex), P69423 1-258 (natural protein)
chain: MSVEDTQPLITHLIELRKRLLNCIIAVIVIFLCLVYFANDIYHLVSAPLIKQLPQGSTMIATDVASPFFTPIKLTFMVSLILSAPVILYQVWAFIAPALYKHERRLVVPLLVSSSLLFYIGMAFAYFVVFPLAFGFLANTAPEGVQVSTDIASYLSFVMALFMAFGVSFEVPVAIVLLCWMGITSPEDLRKKRPYVLVGAFVVGMLLTPPDVFSQTLLAIPMYCLFEIGVFFSRFYVGKGRNREEENDAEAESEKTEE
**Q.** With B1 as the binder, how does the stoichiometry N read?
**A.** 3
